Test [1] has as its target human IGF-1R(1-903)-Fc (human) (UniProt P08069). Kind of test: ELISA, blocking of 320 nM IGF-1 His on biotinylated hIGF-1R-Fc. A general note: An ELISA detects its analyte on a solid surface through an enzyme-linked reagent.
Test [2] has the same target. Kind of test: ELISA on hIGF-1R-Fc; competitor Zenon-labeled αIR3; +++++ = 90-100%.
For test [3] the target is unchanged. Kind of test: ELISA on hIGF-1R-Fc; competitor biotinylated M14-G11; +++++ = 90-100%.

Chain of human IGF-1R(1-903)-Fc (human) (P08069 31-933): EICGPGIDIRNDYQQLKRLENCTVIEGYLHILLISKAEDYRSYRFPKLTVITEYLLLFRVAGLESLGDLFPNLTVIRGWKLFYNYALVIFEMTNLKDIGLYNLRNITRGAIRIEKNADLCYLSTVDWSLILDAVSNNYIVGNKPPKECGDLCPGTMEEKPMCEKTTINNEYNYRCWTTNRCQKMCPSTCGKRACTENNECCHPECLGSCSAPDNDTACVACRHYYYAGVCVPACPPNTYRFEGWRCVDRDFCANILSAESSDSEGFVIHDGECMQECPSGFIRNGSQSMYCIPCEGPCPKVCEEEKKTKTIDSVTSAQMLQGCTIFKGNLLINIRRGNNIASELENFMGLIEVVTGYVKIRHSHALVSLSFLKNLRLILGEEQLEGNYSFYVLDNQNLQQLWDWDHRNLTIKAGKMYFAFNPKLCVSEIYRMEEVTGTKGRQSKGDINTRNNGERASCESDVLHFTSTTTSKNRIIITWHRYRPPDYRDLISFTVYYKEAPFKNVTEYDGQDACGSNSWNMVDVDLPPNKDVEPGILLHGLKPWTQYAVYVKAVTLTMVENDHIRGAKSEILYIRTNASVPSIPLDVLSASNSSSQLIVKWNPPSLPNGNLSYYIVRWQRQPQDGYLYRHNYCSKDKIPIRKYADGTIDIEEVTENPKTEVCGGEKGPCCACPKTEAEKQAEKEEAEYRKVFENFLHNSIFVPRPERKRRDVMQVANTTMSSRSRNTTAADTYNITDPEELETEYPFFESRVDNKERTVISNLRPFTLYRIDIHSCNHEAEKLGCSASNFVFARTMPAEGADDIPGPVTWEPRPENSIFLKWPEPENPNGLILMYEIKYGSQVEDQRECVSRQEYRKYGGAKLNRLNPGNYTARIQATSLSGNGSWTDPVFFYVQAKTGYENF

In general, IC50 refers to the concentration needed to halve the response being measured. The low end stands for inhibition by little substance, the high end for a need for much substance. In test [1], αIR3 antibody had a % IGF-1 (at 320 nM) bound to IGF-1R at saturating antibody concentrations of 23% and an IC50 of 4.9 nM. In test [2], the percent competition was 90 to 100%. The same substance came in with a percent competition in test [3] of 90 to 100%.
